# Measured values taken from paper PMC9775280, “A Simple Label-Free Aptamer-Based Electrochemical Biosensor for the Sensitive Detection of C-Reactive Proteins”.
# T1: C-reactive protein (CRP) (UniProt P02741 19-224)
# T1 sequence: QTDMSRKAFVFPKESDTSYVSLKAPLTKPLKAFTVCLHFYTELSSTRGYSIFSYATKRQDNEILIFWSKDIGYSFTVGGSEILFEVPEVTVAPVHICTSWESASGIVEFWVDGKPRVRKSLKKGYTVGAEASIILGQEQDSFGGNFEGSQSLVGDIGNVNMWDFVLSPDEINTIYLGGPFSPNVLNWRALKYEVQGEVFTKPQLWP
# B1: CRP aptamer (ssDNA)
# DNA: GCCTGTAAGGTGGTCGGTGTGGCGAGTGTGTTAGGAGAGATTGC
# modifications: 5'-NH2
# Legend:
# [1] = target: PSA (PSA standard) (UniProt P07288 25-261); test: electrochemical aptasensor (DPV); 1 ng/mL; current below blank, attributed to physical adsorption; PBS as solvent, 100 uL sample; DPV -0.6 to 0 V, peak about -0.4 V; BSA-blocked electrode; pH, salt and assay temperature not stated; conditions: protein: commercial
# PSA (PSA standard), sequence (P07288 25-261): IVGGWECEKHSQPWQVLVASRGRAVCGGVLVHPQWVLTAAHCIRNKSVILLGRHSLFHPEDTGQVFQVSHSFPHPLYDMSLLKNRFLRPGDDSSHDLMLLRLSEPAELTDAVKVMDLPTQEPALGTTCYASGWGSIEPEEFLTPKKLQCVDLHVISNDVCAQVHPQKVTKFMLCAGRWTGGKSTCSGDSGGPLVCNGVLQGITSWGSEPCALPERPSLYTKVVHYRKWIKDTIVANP
# [2] = target: B-type brain natriuretic peptide (BNP) (UniProt P16860 103-134); test: as above; conditions: protein: commercial
# B-type brain natriuretic peptide (BNP), sequence (P16860 103-134): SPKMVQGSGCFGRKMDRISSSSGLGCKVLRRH
# [3] = target: T1, C-reactive protein (CRP); test: electrochemical aptasensor (DPV); 1 ng/mL CRP; aptamer immobilized on SPE/AuNPs/GO-COOH, BSA-blocked; linear range 0.001-100 ng/mL, LOD 2.941e-4 ng/mL; PBS as solvent, 100 uL sample; DPV -0.6 to 0 V, peak about -0.4 V; BSA-blocked electrode; pH, salt and assay temperature not stated; conditions: protein: commercial; chain copies: 5
binder,measurement,setting,value
B1,binding result,[1],no binding
same,binding result,[2],no binding
same,binding result,[3],binds
